The results in this text go back to patent US20220042033A1, “COMPOSITION AND METHOD FOR CONFERRING AND/OR ENHANCING TOLERANCE AGAINST HERBICIDES BY USING VARIANTS OF PPO” (FarmHannong Co., Ltd., priority 2017, published 2022).

Assay [1] concerns MxPPO. Kind of assay: PPO enzyme activity of purified MBP-fused MxPPO wild type and variants. The assay is classed as biochemical, Myxococcus xanthus. To be noted: PPO enzyme activity of purified MxPPO protein, relative to wild type. As for the experimental part:
Thus, PPO proteins of wild type and variants were expressed as fused to MBP and were used for experiments.
The following process for purification of PPO protein was performed in a 4° C. cold room. […] The column was washed with 3 column volumes of buffer and the presence of protein in the washing solution was examined. When the protein was no longer detected, the washing procedure was terminated. Then, the MBP-PPO protein was eluted with approximately 2 column volumes of buffer containing 20 mM maltose. The protein concentration of each eluent was determined and the elution was stopped when the protein was no longer detected. Ten microliter of each fraction was investigated for protein quantification and SDS-PAGE analysis. The highly pure fractions of PPO protein variants were used for the enzyme assay.
Since protoporphyrinogen IX, a substrate of PPO protein, was not commercially available, it was chemically synthesized in the laboratory. Overall process was performed in dark under nitrogen stream. […] of protoporphyrin IX was dissolved in 20 ml of 20% (v/v) EtOH, and stirred under dark condition for 30 minutes. The obtained protoporphyrin IX solution was put into a 15 ml screw tube in an amount of 800 μl, and flushed with nitrogen gas for 5 minutes. To this, 1.5 g of sodium amalgam was added and vigorously shaken for 2 minutes. The lid was opened to exhaust hydrogen gas in the tube. Thereafter, the lid was closed and incubated for 3 minutes. The protoporphyrinogen IX solution was filtered using syringe and cellulose membrane filter. To 600 μl of the obtained protoporphyrinogen IX solution, approximately 300 μl of 2M MOPS [3-(N-morpholino) propanesulfonic acid] was added to adjust pH to 8.0. To determine the enzyme activity of PPO protein, a reaction mixture was prepared with the following composition (based on 10 ml): 50 mM Tris-Cl (pH 8.0); 50 mM NaCl; 0.04% (v/v) Tween 20; 40 mM glucose (0.072 g); 5 units glucose oxidase (16.6 mg); and 10 units catalase (1 μl).
Hundred and eighty microliters of a reaction mixture […] were placed in 96 well plates and 20 μl of purified PPO proteins were added. After 50 μl of the mineral oil was layered, the reaction was initiated by adding the substrate, protoporphyrinogen IX solution, to a final concentration of 50 μM. The reaction proceeded at room temperature for 30 min and the fluorescence of protoporphyrin IX was measured using Microplate reader (Sense, Hidex) (excitation: 405 nm; emission: 633 nm). To calculate the PPO enzyme activity, the protoporphyrinogen IX solution was kept open in the air overnight to oxidize the solution. To this, 2.7 N HCl was added, and the absorbance at 408 nm was measured. A standard curve was generated using standard protoporphyrin IX, and PPO activity was measured by calibration of protoporphyrin IX using the standard curve of protoporphyrin IX.
Activities of variants were presented relatively compared to that of wild type.

In assay [2] the test system is MxPPO. Kind of assay: Herbicide tolerance test of MxPPO wild type and variants in PPO-deficient E. coli BT3(ΔPPO), growth on herbicide-containing LB agar. To be noted: relative to MxPPO WT, light; for Herbicide tolerance, tiafenacil: 2000 μM (FIG. 14); for Herbicide tolerance, flumioxazin: up to 400 μM (FIGS. 15-17); for Herbicide tolerance, sulfentrazone: up to 1000 μM (FIGS. 18-20). The assay is classed as cell-based, Myxococcus xanthus. On the procedure:
Then, the extent of tolerance was evaluated.

B1: I311M + M365V: MxPPO (SEQ ID NO: 3) variant (protein)
chain: MHHMPRTTGMNVAVVGGGISGLAVAHHLRSRGTDAVLLESSARLGGAVGTHALAGYLVEQGPNSFLDREPATRALAAALNLEGRIRAADPAAKRRYVYTRGRLRSVPASPPAFLASDILPLGARLRVAGELFSRRAPEGVDESLAAFGRRHLGHRATQVLLDAVQTGIYAGDVEQLSVAATFPMLVKMEREHRSLILGAIRAQKAQRQAALPAGTAPKLSGALSTFDGGLQVLIDALAASLGDAAHVGARVEGLAREDGGWRLIIEEHGRRAELSVAQVVLAAPAHATAKLLRPLDDALAALVAGIAYAPMAVVHLGFDAGTLPAPDGFGFLVPAEEQRRMLGAIHASTTFPFRAEGGRVLYSCVVGGARQPGLVEQDEDALAALAREELKALAGVTARPSFTRVFRWPLGIPQYNLGHLERVAAIDAALQRLPGLHLIGNAYKGVGLNDCIRNAAQLADALVAGNTSHAP
modifications: Synthetic (Protoporphyrinogen IX oxidase (MxPPO) of Myxococcus xanthus)
B1: the “Activity (%)” value in the assay on MxPPO [1] amounted to 71%. Besides, in the assay on MxPPO [2], the “Herbicide tolerance, tiafenacil” value was “+ (1-9 fold higher tolerance)”; the “Herbicide tolerance, flumioxazin” value is “++ (10-99 fold higher tolerance)”; the “Herbicide tolerance, sulfentrazone” value is on record as “+ (1-9 fold higher tolerance)”.

B2: L332T + M365I: MxPPO (SEQ ID NO: 3) variant (protein)
chain: MHHMPRTTGMNVAVVGGGISGLAVAHHLRSRGTDAVLLESSARLGGAVGTHALAGYLVEQGPNSFLDREPATRALAAALNLEGRIRAADPAAKRRYVYTRGRLRSVPASPPAFLASDILPLGARLRVAGELFSRRAPEGVDESLAAFGRRHLGHRATQVLLDAVQTGIYAGDVEQLSVAATFPMLVKMEREHRSLILGAIRAQKAQRQAALPAGTAPKLSGALSTFDGGLQVLIDALAASLGDAAHVGARVEGLAREDGGWRLIIEEHGRRAELSVAQVVLAAPAHATAKLLRPLDDALAALVAGIAYAPIAVVHLGFDAGTLPAPDGFGFTVPAEEQRRMLGAIHASTTFPFRAEGGRVLYSCIVGGARQPGLVEQDEDALAALAREELKALAGVTARPSFTRVFRWPLGIPQYNLGHLERVAAIDAALQRLPGLHLIGNAYKGVGLNDCIRNAAQLADALVAGNTSHAP
modifications: Synthetic (Protoporphyrinogen IX oxidase (MxPPO) of Myxococcus xanthus)
Regarding B2, the “Activity (%)” value in the assay on MxPPO [1] is given as 80%. Further, in the assay on MxPPO [2], the “Herbicide tolerance, flumioxazin” value is “+ (1-9 fold higher tolerance)” and the “Herbicide tolerance, sulfentrazone” value is given as “+ (1-9 fold higher tolerance)”.

B3: L332T + M365V: MxPPO (SEQ ID NO: 3) variant (protein)
chain: MHHMPRTTGMNVAVVGGGISGLAVAHHLRSRGTDAVLLESSARLGGAVGTHALAGYLVEQGPNSFLDREPATRALAAALNLEGRIRAADPAAKRRYVYTRGRLRSVPASPPAFLASDILPLGARLRVAGELFSRRAPEGVDESLAAFGRRHLGHRATQVLLDAVQTGIYAGDVEQLSVAATFPMLVKMEREHRSLILGAIRAQKAQRQAALPAGTAPKLSGALSTFDGGLQVLIDALAASLGDAAHVGARVEGLAREDGGWRLIIEEHGRRAELSVAQVVLAAPAHATAKLLRPLDDALAALVAGIAYAPIAVVHLGFDAGTLPAPDGFGFTVPAEEQRRMLGAIHASTTFPFRAEGGRVLYSCVVGGARQPGLVEQDEDALAALAREELKALAGVTARPSFTRVFRWPLGIPQYNLGHLERVAAIDAALQRLPGLHLIGNAYKGVGLNDCIRNAAQLADALVAGNTSHAP
modifications: Synthetic (Protoporphyrinogen IX oxidase (MxPPO) of Myxococcus xanthus)
Turning to B3, in the assay on MxPPO [1], the “Activity (%)” value is 68%. Moreover, in the assay with MxPPO [2], the “Herbicide tolerance, tiafenacil” value is reported as “+ (1-9 fold higher tolerance)”; the “Herbicide tolerance, flumioxazin” value is “+ (1-9 fold higher tolerance)”; the “Herbicide tolerance, sulfentrazone” value is given as “+ (1-9 fold higher tolerance)”.
